Common to all, as to settings: protein: recombinant;recombinant; tags: ;N-terminal His; copies: 1;1; label: 5'-32P on forward (C-rich) strand; blunt
In data set [1] the target is T1, GABPA (GABP alpha);GABPB (GABP beta1L) (human?;human?, UniProt Q06546;Q06547 1-454;1-395, |). Description: DNase I footprinting; 5 uM GABP; bound via native site, not at the unmutated proto-sites; 20 mM Tris-Cl pH 7.5, 5% glycerol, 5.2 mM MgCl2, 50 mM KCl, 1 mM TCEP, 20 nM oligo, 1 h room temperature; EMSA on 4% native PAGE, 0.5x TBE, 4 C.
T1 sequence (Q06546 whole entry, chain 1 of 2): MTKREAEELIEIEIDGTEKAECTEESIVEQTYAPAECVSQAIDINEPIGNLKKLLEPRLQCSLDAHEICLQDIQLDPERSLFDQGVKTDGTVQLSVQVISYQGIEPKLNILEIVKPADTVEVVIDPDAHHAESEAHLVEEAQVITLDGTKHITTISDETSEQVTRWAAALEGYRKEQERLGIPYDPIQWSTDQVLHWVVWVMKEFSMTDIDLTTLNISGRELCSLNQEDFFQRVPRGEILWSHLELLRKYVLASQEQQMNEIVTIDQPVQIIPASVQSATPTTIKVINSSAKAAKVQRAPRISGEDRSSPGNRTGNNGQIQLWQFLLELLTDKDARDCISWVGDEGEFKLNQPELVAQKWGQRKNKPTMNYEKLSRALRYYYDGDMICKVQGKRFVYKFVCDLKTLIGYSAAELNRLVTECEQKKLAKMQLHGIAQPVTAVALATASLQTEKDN
T1 sequence (Q06547 whole entry, chain 2 of 2): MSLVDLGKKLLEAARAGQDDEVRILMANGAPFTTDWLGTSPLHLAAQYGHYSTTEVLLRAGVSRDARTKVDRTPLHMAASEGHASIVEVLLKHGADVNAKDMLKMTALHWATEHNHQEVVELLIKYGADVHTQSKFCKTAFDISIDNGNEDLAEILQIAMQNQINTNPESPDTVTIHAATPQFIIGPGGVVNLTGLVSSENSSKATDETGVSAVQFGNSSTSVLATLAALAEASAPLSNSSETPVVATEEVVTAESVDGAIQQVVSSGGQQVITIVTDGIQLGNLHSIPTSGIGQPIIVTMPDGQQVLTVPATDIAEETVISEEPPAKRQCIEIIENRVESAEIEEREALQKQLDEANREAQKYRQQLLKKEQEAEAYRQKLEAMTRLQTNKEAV
The target in data set [2] is T1, GABPA (GABP alpha);GABPB (GABP beta1L). Description: DNase I footprinting; 5 uM GABP; -146 de novo site and native site; 20 mM Tris-Cl pH 7.5, 5% glycerol, 5.2 mM MgCl2, 50 mM KCl, 1 mM TCEP, 20 nM oligo, 1 h room temperature; EMSA on 4% native PAGE, 0.5x TBE, 4 C. (Mobility shift assays separate free from complexed probe on a gel.)
Data set [3] shares this target. Description: DNase I footprinting; 5 uM GABP; -124 de novo site and native site; 20 mM Tris-Cl pH 7.5, 5% glycerol, 5.2 mM MgCl2, 50 mM KCl, 1 mM TCEP, 20 nM oligo, 1 h room temperature; EMSA on 4% native PAGE, 0.5x TBE, 4 C.

Numbering of substitutions follows the chain as printed. Numbers in names are those of the source.

B1: TERTp WT 90 (dsDNA)
DNA 1: ACCCCGCCCCGTCCCGACCCCTCCCGGGTCCCCGGCCCAGCCCCCTCCGGGCCCTCCCAGCCCCTCCCCTTCCTTTCCGCGGCCCCGCCC
DNA 2: GGGCGGGGCCGCGGAAAGGAAGGGGAGGGGCTGGGAGGGCCCGGAGGGGGCTGGGCCGGGGACCCGGGAGGGGTCGGGACGGGGCGGGGT
Turning to B1, the binding result in data set [1] was “binds”.

B2: TERTp -146 mutant 90 (C250T) (dsDNA)
DNA 1: B1 DNA 1 with C23T
DNA 2: B1 DNA 2 with G68A
Take B2: the binding result in data set [2] was “binds”.

B3: TERTp -124 mutant 90 (C228T) (dsDNA)
DNA 1: B1 DNA 1 with C45T
DNA 2: B1 DNA 2 with G46A
Turning to B3, in data set [3], the binding result is “binds”.

Source of the values: article PMC11574208, “Mechanistic basis of atypical TERT promoter mutations”.
